This is an account of results in the RNAGym collection of RNA variant scans (doi:10.7554/elife.80360).

B1: Hairpin Ribozyme (parent)
chain: GUCCUCUUUCACGUGCGCGUGAAAGAGAGAAGUGAACCAGAGAAACACACGUUGUGGUAUAUUACCUGGUA

This data set covers variants of B1. Description: self-cleavage, relative activity (ratio to wild type); higher = more cleavage; co-transcriptional.
As for G51A G54U, the self-cleavage came out at 0.649.
To A26U A41G belongs 0.841; to C10A C50U, 0.349.
As for A28G U33G, the figure is 0.211; as for A36U A43C, 0.0574.
For the variant G56U C65G, the self-cleavage is 0.104.
To A44U A45G belongs 0.102.
Regarding A30C A59C, the self-cleavage was found to be 0.0289.
In the case of U7G U8C, the self-cleavage was found to be 0.656.
As for G13U A31G, the figure is 0.499; as for G27C A71G, 0.143; as for A23G G25A, 0.413.
As for A36G A59C, the figure is 0.102.
As for C3U G34U, the figure is 1.17; as for G27A U60A, 0.334.
With G25A A43G, the self-cleavage came to 0.133.
To A44U G69U belongs 0.299.
To G13C C46A belongs 0.137.
To U8G A26U belongs 0.281.
With G51U G69U, the self-cleavage turned out to be 0.287.
As for C38U U60C, the figure is 0.759.
As for C6A U9C, the figure is 0.262.
Regarding G27C G34A, the self-cleavage was 0.161.
With C18U A24C, the self-cleavage was 1.21.
To U5A A23U belongs 0.323; to C3U A23C, 0.408; to C10A C18U, 0.809.
As for C37A A45G, the figure is 0.0956.
For the variant U7G U58C, the self-cleavage came out at 0.813.
As for A36U U52A, the figure is 0.303; as for A35U C50A, 0.295; as for A24C U62G, 0.199.
U8C G40U: the self-cleavage stood at 0.164.
As for A24U C48A, the figure is 0.0466; as for C3U G32U, 0.102.
As for G29U G68A, the figure is 0.097; as for G13C U58A, 0.35; as for C4A A36U, 0.197.
To U8A C50U belongs 0.311; to C16U G32C, 0.0977; to C38U A71U, 0.401.
Turning to G29A A59C, the self-cleavage was found to be 0.138.
C10U U53C: the self-cleavage was 0.708.
As for C18G U53C, the figure is 0.806; as for C18G U53G, 0.819; as for U9C G42A, 0.081.
As to U5G A59C, the self-cleavage was found to be 0.13.
Regarding C16A U58C, the self-cleavage came to 0.937.
To A45U U55C belongs 0.0822; to A43G G54C, 0.168.
To U58A G69C belongs 0.246; to U5G U62G, 0.145; to C10G A43U, 0.157.
As for A22U A47C, the figure is 0.345; as for A26U A43U, 0.139; as for C37A G57C, 0.158.
With G13U U67C, the self-cleavage turned out to be 0.211.
In the case of U14A A24C, the self-cleavage worked out at 0.703.
To A41C A64U belongs 0.267; to C50G G54A, 0.487; to G57U U67G, 0.152.
To C10G U52C belongs 0.536; to C12G G54C, 0.246; to G21A U33G, 0.104.
A49G A59C: the self-cleavage worked out at 0.194.
As for U5C U58G, the figure is 0.318; as for C10A C16G, 0.527; as for U53G A61C, 0.0932.
Take U14C A45G: the self-cleavage turned out to be 0.0672.
With U5G G15C, the self-cleavage came to 0.249.
To C4U A22G belongs 0.236; to A35C C38U, 0.312; to C48A G54C, 0.0747.
For G19A A39C, the self-cleavage turned out to be 0.437.
As for G40U G69C, the figure is 0.14; as for A39U U53A, 0.233; as for C50A U55C, 0.582.
To C48G G68A belongs 0.226; to U7A U60G, 0.496; to G27A A35C, 0.485.
As to C6G A28U, the self-cleavage amounted to 0.22.
As for G57U U62G, the figure is 0.176.
To C16U G69A belongs 0.301.
As for A22G C38U, the self-cleavage is 0.589.
As for C10G A71U, the figure is 0.589; as for A11G G68A, 0.277; as for G25A A71C, 1.1.
To U5A A71U belongs 0.334; to U14G U58G, 0.464; to G21U A36G, 1.07.
As for A47G U58G, the figure is 0.119.
As for A41U G68U, the self-cleavage was found to be 0.423.
To A26U A71C belongs 1.19.
To U33C G54A belongs 0.0427.
As for U14C A44U, the figure is 0.0783.
As for U52C C66G, the self-cleavage is 0.244.
To U58A G68U belongs 0.134; to A30U A43U, 0.0952.
To A31C G69C belongs 0.0986; to G34C A36G, 1.24; to C10G C16G, 0.559.
To C37A G69U belongs 0.777; to A30U C66A, 0.096; to U2A U70G, 0.224.
Regarding A31C A43U, the self-cleavage was found to be 0.0953.
To C6G U58C belongs 0.484.
As for A28C U70G, the figure is 0.322; as for A49C A71C, 0.291; as for G27C U55A, 0.156.
As for C6U A28U, the figure is 0.495.
As for G15U A64U, the self-cleavage was 0.139.
To A47U C65U belongs 0.0249; to C48G C65G, 0.149; to G29U G69U, 0.099.
To U14C C16A belongs 0.922; to A28U A49G, 0.365.
As for C16U A31C, the figure is 0.165.
For the variant A22C G25C, the self-cleavage is 0.182.
To U33G C48A belongs 0.158; to U2G C4G, 0.165; to A41G U70G, 0.677.
In the case of U7A A36G, the self-cleavage stood at 1.03.
To C6G G15A belongs 0.475; to G54U G68C, 0.212.
As for G21C A22U, the figure is 0.715.
As for G17A A64G, the figure is 0.615; as for G13U A39U, 0.257; as for A49G U53G, 0.44.
Consider A26U A47G, for which the self-cleavage was 0.142.
To U14A U58G belongs 0.505.
To U5C A45G belongs 0.157; to C6A C18U, 0.708; to C10U A26G, 0.722.
As to G15C U52C, the self-cleavage was determined as 1.05.
As for U20G A36U, the figure is 0.749.
To C3A G21C belongs 0.489; to A11C G57A, 0.116; to U20A C50A, 0.423.
Regarding A26C A36G, the self-cleavage was 0.846.
For the variant A26C A36U, the self-cleavage is 0.556.
Consider U7G G19C, for which the self-cleavage was found to be 0.592.
In the case of U33G A44C, the self-cleavage was determined as 0.0874.
As for G69U, the figure is 0.243; as for C3U U60C, 0.705.
To G56C G57C belongs 0.173; to A24U A64U, 0.0963.
To G21A A41U belongs 1.07.
In the case of U8A C16U, the self-cleavage was determined as 0.788.
As for C3G A41G, the figure is 0.193.
In the case of G29C G54U, the self-cleavage turned out to be 0.162.
As for G15U U53G, the figure is 0.645; as for U8G G21C, 0.401; as for C37U A71G, 0.779.
To G34A G56U belongs 0.128.
To A24C G34C belongs 1.07; to U52G A59G, 0.25; to U20C G27A, 0.345.
On to C6U A43G, for which the self-cleavage came out at 0.151.
As for A24U A31U, the figure is 0.0897.
As for G34U U52C, the figure is 0.926.
As for A49C C66A, the figure is 0.28; as for U9G A31G, 0.549; as for G40A A41C, 0.274.
On to U33C A49C, for which the self-cleavage was determined as 0.148.
As for C3G C6A, the figure is 0.267.
With U5A A43U, the self-cleavage amounted to 0.188.
As for A26U G69U, the figure is 0.225.
